From publication doi:10.1101/2025.08.18.670902, “Pyrimethamine inhibits mutant NRF2 as a molecular glue” (bioRxiv, 2025)

Target: T1, Kelch fragment (Ala321-Glu611 of human KEAP1 protein) (human, UniProt Q14145 321-611, biotinylated (site not stated))
T1 construct: KEAP1, human, Kelch fragment Ala321-Glu611, printed MW 34,038.03 Da; Captured on a streptavidin chip through biotin; also called Kelch fragment of KEAP1; biotinylated Kelch; source: expressed in vitro, purified, biotinylated, validated by LC-MS
T1 sequence (Q14145 321-611): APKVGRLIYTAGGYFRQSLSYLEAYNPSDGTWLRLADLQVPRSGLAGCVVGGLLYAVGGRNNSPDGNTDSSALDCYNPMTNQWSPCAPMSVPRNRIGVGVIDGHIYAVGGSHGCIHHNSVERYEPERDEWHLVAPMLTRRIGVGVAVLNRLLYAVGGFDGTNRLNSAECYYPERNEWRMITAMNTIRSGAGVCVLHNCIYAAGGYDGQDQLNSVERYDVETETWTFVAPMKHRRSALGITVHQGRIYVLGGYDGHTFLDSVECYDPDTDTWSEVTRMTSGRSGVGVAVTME
Test: SPR; Biacore S200, biotinylated Kelch immobilised on a streptavidin chip; peptide analyte in 2-fold dilutions 200 μM to 0.39 μM, 30 μl/min, 90 s association, 180 s dissociation, analysis at 15 °C; without PYR
Conditions: both partners purified

binding result: binds
B1: DLG^WT peptide (NRF2 residues 17-40) (peptide)
peptide: MDLIDILWRQDIDLGVSREVFDFS
notes: NRF2 (NFE2L2), human, residues 17-40 with the DLG motif; also called 24-mer peptide; source: synthetic peptide
